Test [1] concerns the target T1, recombinant biotinylated CD71 extracellular domain (Sino Biologics) with an N-terminal 6His tag (human, UniProt P02786 89-760, biotinylated (site not stated)).
T1 construct: extracellular domain; also called hCD71; huCD71 ECD
Nature of the test: primary solution ELISA screen.

Test [2] addresses T1, recombinant biotinylated CD71 …. Kind of test: primary solution ELISA screen, signal on hCD71 over HSA. (In an ELISA, binding on a coated surface is turned into a signal by an enzyme label.)
For test [3], the target named is T2, CD71 apical domain (human, UniProt P02786 189-383, limits assumed).
T2 construct: domain: apical domain
Nature of the test: solution ELISA screen (luminescence).

Test [4] deals with T3, human CD71 extracellular domain (human, UniProt P02786 89-760, biotinylated).
T3 construct: extracellular domain; also called hCD71; huCD71 ECD
Nature of the test: solution ELISA screen (luminescence).

Test [5] concerns the target T2, CD71 apical domain. Kind of test: solution ELISA screen, signal ratio to HSA control.
The target in test [6] is T3, human CD71 extracellular domain. Nature of the test: solution ELISA screen, signal ratio to HSA control.

Consider 29 molecules from patent US20220332795A1 (ARO BIOTHERAPEUTICS, published 2022).

T1 sequence (P02786 other isoform, or with tags, fused parts or gaps): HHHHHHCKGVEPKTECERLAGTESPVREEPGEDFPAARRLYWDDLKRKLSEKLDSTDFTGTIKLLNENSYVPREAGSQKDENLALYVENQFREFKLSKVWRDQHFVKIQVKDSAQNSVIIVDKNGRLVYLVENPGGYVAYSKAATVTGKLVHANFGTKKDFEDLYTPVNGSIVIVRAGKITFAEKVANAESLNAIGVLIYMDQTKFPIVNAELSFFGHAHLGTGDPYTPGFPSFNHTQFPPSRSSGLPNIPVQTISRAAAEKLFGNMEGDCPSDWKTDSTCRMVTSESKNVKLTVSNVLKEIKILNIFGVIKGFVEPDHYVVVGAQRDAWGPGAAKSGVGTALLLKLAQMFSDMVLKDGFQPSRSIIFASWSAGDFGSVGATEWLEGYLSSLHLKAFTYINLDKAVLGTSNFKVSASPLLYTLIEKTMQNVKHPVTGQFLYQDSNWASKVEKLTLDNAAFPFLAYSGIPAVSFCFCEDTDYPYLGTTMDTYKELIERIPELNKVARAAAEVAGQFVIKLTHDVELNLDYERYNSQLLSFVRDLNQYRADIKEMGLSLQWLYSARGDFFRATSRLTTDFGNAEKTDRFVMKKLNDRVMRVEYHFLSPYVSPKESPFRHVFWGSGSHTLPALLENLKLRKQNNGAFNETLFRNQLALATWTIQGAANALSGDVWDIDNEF
T3 sequence (P02786 other isoform, or with tags, fused parts or gaps): as above
T2 sequence (P02786 189-383 limits assumed): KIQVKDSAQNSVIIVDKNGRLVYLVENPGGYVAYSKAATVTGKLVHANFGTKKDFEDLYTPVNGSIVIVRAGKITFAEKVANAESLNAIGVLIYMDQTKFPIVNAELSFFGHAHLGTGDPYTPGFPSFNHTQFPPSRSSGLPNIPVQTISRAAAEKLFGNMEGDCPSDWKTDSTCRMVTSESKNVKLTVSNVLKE

B1: SEQ ID NO 21 (designed binder, not shown: small tags and cut ends)
chain: MLPAPKNLVVSRVTEDSARLSWTAPDAAFDSFSIRYNEFIVAGEAIVLTVPGSERSYDLTGLKPGTEYDVPIAGVKGGGASWPLSAIVTT
notes: FN3 domain, hit of the apical domain panning
For B1, in test [1], the RLU turned out to be 579000 RLU. The “hCD71:HSA” value in test [2] was 85.

B2: SEQ ID NO 98 (designed binder, not shown: small tags and cut ends)
chain: MLPAPKNLVVSRVTEDSARLSWTAPDAAFDSFGIAYDEWPEFGEAIVLTVPGSERSYDLTGLKPDTEYIVEIYGVKGGWFSWPLSAIFTT
notes: as for B1
Consider B2, for which the RLU in test [1] came out at 1.31e+06 RLU. In addition, the “hCD71:HSA” value in test [2] was 117.

B3: SEQ ID NO 241 (designed binder, not shown: small tags and cut ends)
chain: MLPAPKNLVVSRVTEDSARLSWTAPDAAFDSFFIGYLEPQPPGEAIHLGVPGSERSYDLTGLKPGTEYNVTIQGVKGGFPSIPLFASFTT
For the molecule B3, the RLU in test [3] amounted to 5.05e+06 RLU; in test [4], 3.1e+06 RLU. Further, in test [5], the “apical domain:HSA” value was found to be 190 ratio. Moreover, the “hCD71:HSA” value in test [6] was 117 ratio.

B4: SEQ ID NO 31 (designed binder, not shown: small tags and cut ends)
chain: MLPAPKNLVVSRVTEDSARLSWTAPDAAFDSFTIEYSEHPIDGEAIPLFVPGSERSYDLTGLKPGTEYYVRIHGVKGGWFSHPLWAFFTT
notes: as for B1
Regarding B4, the RLU in test [1] came out at 642000 RLU. Also, in test [2], the “hCD71:HSA” value worked out at 138.

B5: SEQ ID NO 22 (designed binder, not shown: small tags and cut ends)
chain: MLPAPKNLVVSRVTEDSARLSWTAPDAAFDSFWYLELQFAGEAIVLTVPGSERSYDLTGLKPGTEYNVPITGVKGGIISFPLSAIFTT
notes: as for B1
For the molecule B5, the RLU in test [1] was 3.15e+06 RLU. Further, in test [2], the “hCD71:HSA” value turned out to be 105.

B6: SEQ ID NO 87 (designed binder, not shown: small tags and cut ends)
chain: MLPAPKNLVVSRVTEDSARLSWTAPDAAFDSFAIEYTEFLYSGEAIVLTVPGSERSYDLTGLKPGTEYGVPINGVKGGFVSPPLSAIVTT
notes: as for B1
As for B6, the RLU in test [1] worked out at 282000 RLU. The “hCD71:HSA” value in test [2] was found to be 77.

B7: SEQ ID NO 97 (designed binder, not shown: small tags and cut ends)
chain: MLPAPKNLVVSRVTEDSARLSWTAPDAAFDSFHIWYEEETTIGEAIYLHVPGSERSYDLTGLKPGTEYEVHITGVKGGPYSRPLFANFTT
notes: as for B1
As for B7, in test [1], the RLU amounted to 957000 RLU. In addition, in test [2], the “hCD71:HSA” value was 147.

B8: SEQ ID NO 93 (designed binder, not shown: small tags and cut ends)
chain: MLPAPKNLVVSRVTEDSARLSWTAPDAAFDSFAIEYYEPVPAGEAIYLDVPGSERSYDLTGLKPGTEYDVTIYGVKGGYYSHPLFASFTT
notes: as for B1
Consider B8, for which the RLU in test [1] amounted to 430000 RLU. The “hCD71:HSA” value in test [2] was found to be 91.

B9: SEQ ID NO 2 (designed binder, not shown: small tags and cut ends)
chain: MLPAPKNLVVSEVTEDSARLSWQGVARAFDSFMINYSELFWMGEAIVLTVPGSERSYDLTGLKPGTEYVVRIKGVKGGKGSWPLHAHFTT
notes: as for B1
For B9, in test [1], the RLU worked out at 383000 RLU. Besides, the “hCD71:HSA” value in test [2] worked out at 14.

B10: SEQ ID NO 27 (designed binder, not shown: small tags and cut ends)
chain: MLPAPKNLVVSRVTEDSARLSWTAPDAAFDSFRISYAETVRQGEAIVLTVPGSERSYDLTVETGYRNWVMILGVKGGPGSLPLSAIFTT
notes: as for B1
Turning to B10, the RLU in test [1] was determined as 297000 RLU. Moreover, in test [2], the “hCD71:HSA” value was 127.

B11: SEQ ID NO 23 (designed binder, not shown: small tags and cut ends)
chain: MLPAPKNLVVSRVTEDSARLSWTAPDAAFDSFAIWYHEWYGDGEAIVLTVPGSERSYDLTGPKPGTEYRVRISGVKGGFESGPLSAIFTT
notes: as for B1
On to B11, for which the RLU in test [1] stood at 1.39e+06 RLU. Besides, in test [2], the “hCD71:HSA” value stood at 110.

B12: SEQ ID NO 14 (designed binder, not shown: small tags and cut ends)
chain: MLPAPKNLVVSRVTEDSARLSWTAPDAAFDSFPIYYVENVVWGEAIVLTVPGSERSYDLTGLKPGTEYWEVIIGVKGGQCSRPLSAIFTT
notes: as for B1
B12: the RLU in test [1] was found to be 1.4e+06 RLU. Further, the “hCD71:HSA” value in test [2] was determined as 1280.

B13: SEQ ID NO 35 (designed binder, not shown: small tags and cut ends)
chain: MLPAPKNLVVSRVTEDSARLSWTAPDAAFDSFPISYIESIADGEAIVLTVPGSERSYDLTGLKPGTEYWVAIVGVKGGPFSWSLSAIVTT
notes: as for B1
With B13, the RLU in test [1] was determined as 1.99e+06 RLU. Besides, in test [2], the “hCD71:HSA” value came out at 106.

B14: SEQ ID NO 89 (designed binder, not shown: small tags and cut ends)
chain: MLPAPENLVVSRVTEDSARLSWTAPDAAFDSFWIEYYEGVIQGEAIVLTVPGSERSYDLTGLKPGTEYFVAIWGVKGGKWSVPLSAIFTT
notes: as for B1
Consider B14, for which the RLU in test [1] stood at 919000 RLU. In test [2], the “hCD71:HSA” value turned out to be 141.

B15: SEQ ID NO 91 (designed binder, not shown: small tags and cut ends)
chain: MLPAPKNLVVSRVTEDSARLSWTAPDAAFDSFQIHYWETQGFGEAIVLTVPGSERSYDLTGLKPGTEYPVLIPGVKGGPSSLPLSAIFTT
notes: as for B1
Regarding B15, in test [1], the RLU turned out to be 491000 RLU. In addition, in test [2], the “hCD71:HSA” value was 74.

B16: SEQ ID NO 24 (designed binder, not shown: small tags and cut ends)
chain: MLPAPKNLVVSRVTEDSARLSWTAPDAAFDSFMIRYQEGTRWGEAIVLTVPGSERSYDLTGLKPGTEYIVMIAGVKGGQISLPLSAIFTT
notes: as for B1
In the case of B16, the RLU in test [1] was determined as 2.45e+06 RLU. In test [2], the “hCD71:HSA” value was 374.

B17: SEQ ID NO 20 (designed binder, not shown: small tags and cut ends)
chain: MLPAPKNLVVARVTEDSARLSWTAPDAAIDSFPIDYSEYWWGGEAIVLTVPGSERSYDLTGLKPGTEYPVLITGVKGGYRSGPLSAIFTT
notes: as for B1
B17: the RLU in test [1] worked out at 791000 RLU. In addition, in test [2], the “hCD71:HSA” value amounted to 43.

B18: SEQ ID NO 96 (designed binder, not shown: small tags and cut ends)
chain: MSLPAPKNLVVSRVTEDSARLSWTAPDAAFDSFPIAYLEVFYEGEAIVLTVPGSERSYDLTGLKPGTEYQVPIEGVKGGAMSLPLSAIFTT
notes: as for B1
For the molecule B18, the RLU in test [1] amounted to 726000 RLU. Besides, the “hCD71:HSA” value in test [2] was 48.

B19: SEQ ID NO 100 (designed binder, not shown: small tags and cut ends)
chain: MLPAPKNLVVSRVTEDSARLSWTAPDAAFDSFYIWYEEVMYLGEAIVLTVPGSERSYDLTGLKPGTEYNVPIPGVKGGHSSPPLSAIFTT
notes: as for B1
As to B19, in test [1], the RLU came to 408000 RLU. Besides, the “hCD71:HSA” value in test [2] was determined as 79.

B20: SEQ ID NO 25 (designed binder, not shown: small tags and cut ends)
chain: MLPAPKNLVVSRVTEDSARLSWTAPDAAFDSFPIWYLEKSYQGEAIVLTVPGSERSYDLTGLKPGTEYVVPIIGVKGGRDSCPLSAIFTT
notes: as for B1
Take B20: the RLU in test [1] stood at 222000 RLU. In addition, in test [2], the “hCD71:HSA” value worked out at 58.

B21: SEQ ID NO 16 (designed binder, not shown: small tags and cut ends)
chain: MLPAPKNLVVSRVTEDSARLSWTAPDAAFDSFGIAYREFRPSGEAIVLTVPGSERSYDLTVETGYRNEVVICGVKGGPWSGPLSAIFTT
notes: as for B1
Turning to B21, the RLU in test [1] worked out at 657000 RLU. Further, the “hCD71:HSA” value in test [2] was found to be 95.

B22: SEQ ID NO 90 (designed binder, not shown: small tags and cut ends)
chain: MLPAPKNLVVSRVTEDSARLSWQGVARAFDSFLITYREQIFAGEVIVLTVPGSERSYDLTGLKPGTEYPVWIQGVKGGSPSAEFTT
notes: as for B1
As for B22, the RLU in test [1] was 564000 RLU. Also, the “hCD71:HSA” value in test [2] stood at 46.

B23: SEQ ID NO 225 (designed binder, not shown: small tags and cut ends)
chain: MLPAPKNLVVSRVTEDSARLSWTAPDAAFDSFYIAYAEPRPDGEAILLQVPGSERSYDLTGLKPGTEYSVLIHGVKGGLLSSPLSASFTT
B23: the results for the RLU in test [3] and in test [4] were 7.38e+06 RLU and 4.06e+06 RLU, respectively. Moreover, the “apical domain:HSA” value in test [5] was found to be 435 ratio. Also, the “hCD71:HSA” value in test [6] worked out at 239 ratio.

B24: SEQ ID NO 211 (designed binder, not shown: small tags and cut ends)
chain: MLPAPKNLVVSRVTEDSARLSWTAPDAAFDSFYIAYAEPRPDGEAIQLHVPGSERSYDLTGLKPGTEYSVLIHGVKGGLLSSPLVAIFTT
In the case of B24, the RLU stood at 4.74e+06 RLU in test [3] and 660000 RLU in test [4]. Moreover, in test [5], the “apical domain:HSA” value amounted to 363 ratio. Besides, the “hCD71:HSA” value in test [6] was determined as 50.6 ratio.

B25: SEQ ID NO 212 (designed binder, not shown: small tags and cut ends)
chain: MLPAPKNLVVSRVTEDSARLSWTAPDAAFDSFYIAYAEPRPDGEAIWLAVPGSERSYDLTGLKPGTEYSVLIHGVKGGLLSSPLHAQFTT
Turning to B25, the RLU stood at 5.09e+06 RLU in test [3] and 467000 RLU in test [4]. Moreover, in test [5], the “apical domain:HSA” value came to 292 ratio. Moreover, the “hCD71:HSA” value in test [6] is 26.8 ratio.

B26: SEQ ID NO 207 (designed binder, not shown: small tags and cut ends)
chain: MLPAPKNLVVSRVTEDSARLSWTAPDAAFDSFYIAYAEPRPDGEAIHLSVPGSERSYDLTGLKPGTEYSVLIHGVKGGLLSSPLAAYFTT
For the molecule B26, the RLU in test [3] worked out at 7.11e+06 RLU; in test [4], 2.74e+06 RLU. For the same molecule, the “apical domain:HSA” value in test [5] stood at 58.8 ratio. Moreover, the “hCD71:HSA” value in test [6] came to 22.6 ratio.

B27: SEQ ID NO 206 (designed binder, not shown: small tags and cut ends)
chain: MLPAPKNLVVSRVTEDSARLSWTAPDAAFDSFYIAYAEPRPDGEAIGLDVPGSERSYDLTGLKPGTEYSVLIHGVKGGLLSSPLSAIFTT
On to B27, for which the RLU was found to be 5.22e+06 RLU in test [3] and 828000 RLU in test [4]. Besides, the “apical domain:HSA” value in test [5] came to 373 ratio. Besides, the “hCD71:HSA” value in test [6] was determined as 59.1 ratio.

B28: SEQ ID NO 209 (designed binder, not shown: small tags and cut ends)
chain: MLPAPKNLVVSRVTEDSARLSWTAPDAAFDSFYIAYAEPRPDGEAILLQVPGSCRSYDLTGLKPGTEYSVLIHGVKGGLLSSPLTAIFTT
notes: also called ABX1198
Take B28: the RLU was 8.3e+06 RLU in test [3] and 6.2e+06 RLU in test [4]. Besides, the “apical domain:HSA” value in test [5] turned out to be 466 ratio. In test [6], the “hCD71:HSA” value was 348 ratio.

B29: SEQ ID NO 214 (designed binder, not shown: small tags and cut ends)
chain: MLPAPKNLVVSRVTEDSARLSWTAPDAAFDSFYIAYAEPRPDGEAIGLQVPGSERSYDLTGLKPGTEYSVLIHGVKGGLLSSPLCAEFTT
As for B29, the RLU in test [3] was determined as 4.3e+06 RLU; in test [4] it was 393000 RLU. The “apical domain:HSA” value in test [5] turned out to be 143 ratio. Further, in test [6], the “hCD71:HSA” value amounted to 13 ratio.
